Reference: the DeepSol protein solubility set

Test: soluble on expression in E. coli; label from the status in PepcDB or PDB records
With “MKCSWREGNKIQLLENGEQYYPAVFKAIGEAQERIILETFIWFEDNVGKQLHAALLAAAQRGVKAEVLLDGYGSPDLSDEFVNELTAAGVVFRYYDPRPRLFGMRTNVFRRMHRKIVVIDARIAFIGGLNYSAEHMSSYGPEAKQDYAVRLEGPIVEDILQFELENLPGQSAARRWWRRHHKAEENRQPGEAQVLLVWRDNEEHRDDIERHYLKMLTQAQREVIIANAYFFPGYRFLHALRKAARRGVRIKLIIQGEPDMPIVRVGARLLYNYLVKGGVQVFEYRRRPLHGKVALMDDHWATVGSSNLDPLSLSLNLEANVIIHDRHFNQTLRDNLNGIIAADCQQVDETMLPKRTWWNLTKSVLAFHFLRHFPALVGWLPAHTPRLTQVDPPAQPTMETQDRVETENTGVNP” the “soluble on expression in E. coli” value was “not soluble”.
With “MTDEKKDDRPVYQAACHCGTVRFELRLTDGLRTARRCNCSLCRMRGAVAVSANLGDITVTQGEEALTLYQFHTREAKHYFCSRCGIYTFHQRRSAPDQYGVNVACIEGMSPFDFADVPVSEGRVHPKDRVDGGVGVAGWLRYEGNPEWGQGLEHHHHHH” the “soluble on expression in E. coli” value was “soluble”.
In the case of “MAFGRRTGKDGGKRKAGHAPVQPADEHVRPEDTVVASAAAASGVEDQEELQGPFDIDDFDDPSVAVLARLDLGSVLIPMPAAGQVQVELTESGVPSAVWVITPNGRYSIAAYAAPKTGGLWREVAGELADSLRKDSAKVSIKDGPWGREVIGIAAGVVRFIGVDGYRWMIRCVVNGPQETVDALTEEAREALADTVVRRGDTPLPVRTPLPVHLPEPMAAQLREAAAAQADTQRQAAAGVARRGAQGSAMQQLRSTTGG”, the “soluble on expression in E. coli” value is reported as “soluble”.
For “MGSDKIHHHHHHMNAHTNSQANTNVTNVVFRTHTQPDEAASKKAGRPIFTDIEVCDITFPANRQTRATFPAHDAEPNATRESMANGGGVMTYAQVYNAQYLAYKSGVAQPMGGTPLSEAPFLTESKRRELKALNVHTVEALASLDGMPLKQLGMGGRELKNQAVAYIDNAAGSADVTNLAAQVAILTQQLAEERRMREEFTNAALARRERIKAGEEIEDDEQPEDDEPAELEPEPDDFEPVLPPTFAEIDAMDDEALKVYIAKETGSRPRGNPNRDTLVAAAKELAS”, the “soluble on expression in E. coli” value was “not soluble”.
With “MLLQELLGIDEDIYLIEESYTSQRNPELTLQYLNRFLNFPDIENIRIIRVRQAGHTTGLLFFNPADEDVPVDFWSVFTGAFAQPALKEKFETLADSLLNLTSPEKDIELLHETWFNAVNEYYSLMLVNRNLCTSCSVKPESYGNVFSENRIKRVAEILELLRKKGYYPEGRLLEVCCGNGMSTLALYRSGLDPLAIEINKCTICQGLEQGVLNPQRVMVMDAAAVSRYFEPGSFDAVMGFMLGLVYEFNKGLWVRIVREAVSVAADGAVLLFTVSSKPEIEILADALFRAGVDGEIVDNTDSEGAYDQWLFVGRRQKNTST” the “soluble on expression in E. coli” value was “not soluble”.
For “MKSYLNLKEEVWDKETCSGCGACVSVCPTENIYFKQQSPVQFDCDECACIIVPTENGESPISAEFCKVTLYDVNCGACYNACPRTKERHIFNLEKVPGRVIENYKAKSTLETKNIQSGGVVTAILANAFDEDLIDGAIVMMEDKWTMDPKSYLATSKEDVLKTAGSRYNWNVPILEVLKEAVMVKKLNKIAVVGTPCVINAVYQMMATNNDLVEPFKKAIRLKISLFCFETFDYDKMLKKLKEVEVNPWDIKKMEIDKGKLIVSTIHGNVFNFKIDEMDEYVRKGCKVCRDFTGISSDISVGNVGTPEGYSTVLVRNKWGKGFFDRAVINGYVSVEGEASIDPVISLSKKKMERKDIEFLEHHHHHH”, the “soluble on expression in E. coli” value was “not soluble”.
With “MANSSRRTTAFSEAEKAAVYRALLTRRDIRHFRPDPIPEEVLERLYQAFHAAPSVGLTQPWAIVEIRERATKERVFALHQEARARERALFQGKAQRVYDRLRLEGLLEAPLHLAVFQRPVARSLGHHTMPETLAYSVVLAVGNLWTAARAEGIGVGWVSILEPEAVARLLGAPPDYRLLAYLCLGYPRAWPDEPLLERAGWRQREPLLRYRERFP” the “soluble on expression in E. coli” value was “soluble”.
With “MKTKIIGVLGLGIFGQTLAQELSNFEQDVIAIDSNPENVQAVAEVVTKAAIGDITDLAFLKHIGISDCDTVIIATGNSLESSVLAVMHCKKLGVPQVIAKARNLVYEEVLYEIGADLVISPERESGQNVAANLMRNKITDVFQIESDISVIEFKIPKSWVGKTVEQLNIRHKFDLNLIGIRKAKNKPVDTEVPINSPLEEGIILVAIANSDAFQRYDYLGYFNLEHHHHHH” the “soluble on expression in E. coli” value was “soluble”.
For “MSLSTPAVQALSHLVRDVTMKSIVLSAFGTMPIVDERPLPVAGPQEILIRMTHASLNPIDRRIAEGFFKDRFEHRFPLTLGIDGAGVVESIGEQVSDFEVGDSVFGRFLHSYVGNGSFSEYVAISADATLLHTPLGVPPALAAALPTAATTALQAVESLGLPPGSVVLIMGATGGVGTFAVQLARAKGYQVLASASTEAAPWLAQLGVEHVFDRTQNVPERLSTGWPAGINGLIDLVNPAPAFAELVSCIAPGGTALSSIWSATADVAAARGVRAVNLEMLPNREDLRTLARQVLSGSLRVVIDKHISLEAVPAVMSQRQAGGARGKTVIDIAEGHHHHHH”, the “soluble on expression in E. coli” value was “soluble”.
For “KVWAFDIQPQALNNTRCRLQEAGYSNVRLILDGHENLKQYIPKPLDAAIFNFGWLPGGDKSLTTRTETSIAALSATLSLLKENGMLIAVLYPGHENGKQEAEAIEQWAKNLPQEQFAVLRYGFTNRKNSPPYLLVFEKLRQK”, the “soluble on expression in E. coli” value was “not soluble”.
With “MGSDKIHHHHHHMYRIRVFGDPVLRKRAKPVTKFDENLKKTIERMIETMYHYDGVGLAAPQVGISQRFFVMDVGNGPVAVINPEILEIDPETEVAEEGCLSFPEIFVEIERSKRIKVKYQNTRGEYVEEELEGYAARVFQHEFDHLNGVLIIDRISPAKRLLLRKKLMDIARTVKR” the “soluble on expression in E. coli” value was “soluble”.
With “MSEAESCEETSKEHRIWKKNVPYLYDTVVTKEVEWPSLSVQWMPDVTKTENSDSSMHRMIHGTHTCGGVQNHLMISKFTITTDTPEFDDAKWDSEREEFGGYGEGSAAKWDTEIKINHPGEVHRARYMPHNPFIIASRGPSDDVYIFDYTKHPSEPKDTKFRPQLRLKGHEGEGYGMSWSNTREGHLLTAGDDGMICHWDINANQTISGQIVPQSKFKGHSSNAEDVSFHALHNFVFGSVGDDRKLNLWDLRQSKPQLTAVGHTAEVNCITFNPFSEYILATGSVDKTVALWDMRNMRKKMYTLKHHNDEIFQVSFSPHYETVLASSGSDDRVIVWDISKIQDPSSSSAASSDSVPPEVIFIHAGHTGKVADFSWNPNRPWTICSSDEFNALQVWEVSNSLVSSEKWETEMI” the “soluble on expression in E. coli” value was “not soluble”.
In the case of “GAKPRNLNVSFQGCGMDSLSVRAMDTDTLTQVKEKILEAFCKNVPYSQWPRAEDVDLEWFASSTQSYILRDLDDTSVVEDGRKKLNTLAHYKIPEGASLAMSLIDKKDNTLGRVKDLDTEKYFHLVL”, the “soluble on expression in E. coli” value is reported as “soluble”.
With “GDLLVVTLENITEAKQGEISLNAALHAAEKQERLYNSITNNTPDLVYVFGLDYSFTYANKALLTMWGKTAEEAIGKGLRENGYEEWHAQMHEREIDEIKATKKSIRGTVSFPHAELGSRMYDYILVPVLNESGEVEAIAGTTRD” the “soluble on expression in E. coli” value was “not soluble”.
In the case of “MIPLPSGTKIWLVAGITDMRNGFNGLAAKVQTTLKDDPMSGHVFIFRGRNGSQVKLLWSTGDGLCLLTKRLERGRFAWPSARDGKVFLTPAQLAMLLEGIDWRQPKRLLTSLTML”, the “soluble on expression in E. coli” value is reported as “not soluble”.
With “MKRQWALEDFEIGRPLGKGKFGNVYLAREKQSKFILALKVLFKAQLEKAGVEHQLRREVEIQSHLRHPNILRLYGYFHDATRVYLILEYAPLGTVYRELQKLSKFDEQRTATYITELANALSYCHSKRVIHRDIKPENLLLGSAGELKIADFGWSVHAPSSRRTDLCGTLDYLPPEMIEGRMHDEKVDLWSLGVLCYEFLVGKPPFEANTYQETYKRISRVEFTFPDFVTEGARDLISRLLKHNPSQRPMLREVLEHPWITANSSKPSNCQNKESAAAALEHHHHHH” the “soluble on expression in E. coli” value was “soluble”.
With “MILRRPSQADKEAILDMMGEFEREKSVHDGGFWNADNFIYEEWLEENLQSEAGLNIPENWVPAIQLVSFNESGHALGFLHLRLRLNGRLLEKGGHIGYSIRPSERGKGYAKESLRQGLQVAKEKNIQRALVTCSTENPASRAVILANGGQLEDICNETERYWIDLE” the “soluble on expression in E. coli” value was “not soluble”.
For “GPGSMLRLSLRRWCAAAASGSSTSTAHGSPPATTLPDFYGKSFSVSPRAWAQITRKNSEEGFTNDARYLRLAIDSGGCHGYVYKFSFEKNDEFSCEGDVAIAEVDAVSPSDEAFTGAQPSPRVVVDTLSASKLANATLDYHSELKGSAFVVVGNELVDESCACAMSFSMRKTTRQSVASSSSARGASSGDGGGHGGSGAAAPPAGSSLAANARPISRRSTTRATS”, the “soluble on expression in E. coli” value was “soluble”.
In the case of “PLTEAQKNKLRHLSVVTLAAKVKCIPYAVLLEALALRNVRQLEDLVIEAVYADVLRGSLDQRNQRLEVDYSIGRDIQRQDLSAIARTLQEW”, the “soluble on expression in E. coli” value is reported as “not soluble”.
With “MGSDKIHHHHHHMPEILINKPVEDELVESYLLYSMSVIVGRAIPDVRDGLKPVQRRILYGMYELGLKHNSPTKKSARIVGEVMGKYHPHGDAPVYDALVRMAQPFTMRYPLIEGQGNFGSIDRDPPAAMRYTEARLTRLAEEMLEDIEKNTVNMIDNFDGTLKEPEVLPSKVPNLIINGASGIAVGMATNIPPHNLSETVDALIYLIDHPEATVEELMQFIKGPDFPTGAVVVNASELKKVYEEGRGRIIVRGKVHVEDGKRVKRIVITEIPYGVSKAGLIEQIAKIAKDDESLPIRNIRDESDKRGMRIVIEIPKDANEEVIINNLYKRTALQDYFNVQMLVIDKHKRPRLMNLKGLMEAFLEHRFEVIRRRARYEYEQYTRRAHVVEGLLKAARAIGVVVDIVRNSKDVESARQSLMETLEITEEQAKAILDMRLSRLTSLEIENLQNEYSDLVRKISEVKEILEKDEKVKEIMKKEFLYLKQQYGDPRRTEVTDQSIEYNEEELIVEEDVVITLSHKGYLKSTPLNSYRSQKRGGKGITVSKLSEDDEVEFVVVAKNTSSTLFITNLGRAYVLKNYQLETTGRNTRGRHITAFLNLEDTEKIVALASLNGEGRDLVIATKSGKIKRTALKEFENATSNRGVRAIKIEPGDEIVSARVVNSEKETLIVATKMGMAIRFPVSDVRRMGRNAAGVQAIKLQPGDEVVSVDVIPPGEEGEILTVTEKGFGKRTPVQLYRIQRRGGTGLRNISDVNKTGYVVAVRYVRGDEEIVVVTRNGMMIRFPVSEIGVIGRVTKGVKLIELGDDTISKVAVVKD” the “soluble on expression in E. coli” value was “not soluble”.
With “KKTFLTVRGNLTFNKDKIIENDEPPVDYPWMETRGTNVNATWGFIADGLFTSQAEIEDHATQFGTVHVGDIKYRDLNGDGVIDNYDKTVIGRGDVPRIYYGFGADLQIGDFSISALFQGTGQADRYLDGICIKPFWDDEGRDNVFANIHDRWSPDDPTNQDVFYPRMYVGSDANTNNVQKSSWWVKDVSFLRLKQLNISYNIPKKLLDRCFLKSASVYLMGTNLLTFSNFKLWDPELNTSNGTAYPNVSSYSVGVKFSF” the “soluble on expression in E. coli” value was “not soluble”.
For “MHILVVSVNYRTAPVEFREKLTFQAAELERAMTTLQNQKSVLENVIVSTCNRTEIYAVVDQLHTGRYYIKKFLADWFQLEIEEVAPYLTIFEQDGAIDHLFRVTCGLDSMVVGETQILGQIKDSFLEAQQVKATGTIFNELFKQVITLAKRAHSETTIGESAMSVSYAAVELGKKIFGELTDCHVLILGAGKMGELALQNLYGSGARKVTVMNRTLSKAEIMAEKYMGHAKPLSELQCALLEADILISSTGASDYVITKEMMTKVEKMRSGRPLFMVDIAVPRDIDPAIDELEGSFLYDIDDLQGVVEANRAERLKEAEKIQFMIEEEIVLFKTWLSTLGVVPLISALRDKALAIQSETMESLERKIPNLSDRERKVISKHTKSIINQLLKDPILVAKEIAAEEGADEKLALFAKIFDLEMEDVESRAEEVEHKRVWTPSVPSL”, the “soluble on expression in E. coli” value was “not soluble”.
